Laboratory results published in US20110263827A1 (AbbVie / Abbott, published 2011).

Key:
DLL-4 [1] = molecular target: T1, DLL-4 (UniProt Q9NR61 27-524, limits assumed, biotinylated); experiment: direct bind ELISA, C-term VD;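 note: ELISA with antibody or DVD-Ig preparations applied to target antigen-coated plates for 1 h at room temperature, TMB colour development, absorbance read at 450 nm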
T1 construct: ELISA antigen

EGFR [2] = molecular target: T2, EGFR (UniProt P00533 25-645, limits assumed, biotinylated); experiment: direct bind ELISA, N-term VD;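 note: antibody or DVD-Ig preparations bound to immobilized target antigen on ELISA plates, 1 h at room temperature, TMB detection read as absorbance at 450 nm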
T2 construct: ELISA antigen; construct not described

EGFR [3] = molecular target: T2, EGFR; experiment: direct bind ELISA, C-term VD;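 note: ELISA with antibody or DVD-Ig preparations applied to target antigen-coated plates for 1 h at room temperature, TMB colour development, absorbance read at 450 nm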
DLL-4 [4] = molecular target: T1, DLL-4; experiment: direct bind ELISA, N-term VD;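 note: antibody or DVD-Ig preparations bound to immobilized target antigen on ELISA plates, 1 h at room temperature, TMB detection read as absorbance at 450 nm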

Binder | EC50 (DLL-4 [1]) [nM] | EC50 (EGFR [2]) [nM] | EC50 (EGFR [3]) [nM] | EC50 (DLL-4 [4]) [nM]
DVD841 (bispecific antibody, DVD-Ig; HC S, LC L; variable parts only) VH: QVQLQESGPGLVKPSQTLSLTCTVSGYSISSDFAWNWIRQPPGKGLEWMGYISYSGNTRYQPSLKSRITISRDTSKNQFFLKLNSVTAADTATYYCVTAGRGFPYWGQGTLVTVSSASTKGPEVQLVESGGGLVQPGGSLRLSCAASGFTFTDNWISWVRQAPGKGLEWVGYISPNSGFTYYADSVKGRFTISADTSKNTAYLQMNSLRAEDTAVYYCARDNFGGYFDYWGQGTLVTVSS VL: DIQMTQSPSSMSVSVGDRVTITCHSSQDINSNIGWLQQKPGKSFKGLIYHGTNLDDGVPSRFSGSGSGTDYTLTISSLQPEDFATYYCVQYAQFPWTFGGGTKLEIKRTVAAPSVFIFPPDIQMTQSPSSLSASVGDRVTITCRASQDVSTAVAWYQQKPGKAPKLLIYSASFLYSGVPSRFSGSGSGTDFTLTISSLQPEDFATTYYCQQSYTGTVTFGQGTKVEIKR | 0.55 | 4.06 | – | –
DVD339 (bispecific antibody, DVD-Ig; HC S, LC S; variable parts only) VH: QVQLQESGPGLVKPSQTLSLTCTVSGYSISSDFAWNWIRQPPGKGLEWMGYISYSGNTRYQPSLKSRITISRDTSKNQFFLKLNSVTAADTATYYCVTAGRGFPYWGQGTLVTVSSASTKGPEVQLVESGGGLVQPGGSLRLSCAASGFTFTDNWISWVRQAPGKGLEWVGYISPNSGFTYYADSVKGRFTISADTSKNTAYLQMNSLRAEDTAVYYCARDNFGGYFDYWGQGTLVTVSS VL: DIQMTQSPSSMSVSVGDRVTITCHSSQDINSNIGWLQQKPGKSFKGLIYHGTNLDDGVPSRFSGSGSGTDYTLTISSLQPEDFATYYCVQYAQFPWTFGGGTKLEIKRTVAAPDIQMTQSPSSLSASVGDRVTITCRASQDVSTAVAWYQQKPGKAPKLLIYSASFLYSGVPSRFSGSGSGTDFTLTISSLQPEDFATTYYCQQSYTGTVTFGQGTKVEIKR | 4.01 | 5.1 | – | –
DVD782 (bispecific antibody, DVD-Ig; HC L, LC L; variable parts only) VH: EVQLVESGGGLVQPGGSLRLSCAASGFTFTDNWISWVRQAPGKGLEWVGYISPNSGFTYYADSVKGRFTISADTSKNTAYLQMNSLRAEDTAVYYCARDNFGGYFDYWGQGTLVTVSSASTKGPSVFPLAPQVQLQESGPGLVKPSQTLSLTCTVSGYSISSDFAWNWIRQPPGKGLEWMGYISYSGNTRYQPSLKSRITISRDTSKNQFFLKLNSVTAADTATYYCVTAGRGFPYWGQGTLVTVSS VL: DIQMTQSPSSLSASVGDRVTITCRASQDVSTAVAWYQQKPGKAPKLLIYSASFLYSGVPSRFSGSGSGTDFTLTISSLQPEDFATTYYCQQSYTGTVTFGQGTKVEIKRTVAAPSVFIFPPDIQMTQSPSSMSVSVGDRVTITCHSSQDINSNIGWLQQKPGKSFKGLIYHGTNLDDGVPSRFSGSGSGTDYTLTISSLQPEDFATYYCVQYAQFPWTFGGGTKLEIKR | – | – | 55.2 | 0.37
DVD812 (bispecific antibody, DVD-Ig; HC L, LC S; variable parts only) VH: EVQLVESGGGLVQPGGSLRLSCAASGFTFTDNWISWVRQAPGKGLEWVGYISPNSGFTYYADSVKGRFTISADTSKNTAYLQMNSLRAEDTAVYYCARDNFGGYFDYWGQGTLVTVSSASTKGPSVFPLAPQVQLQESGPGLVKPSQTLSLTCTVSGYSISSDFAWNWIRQPPGKGLEWMGYISYSGNTRYQPSLKSRITISRDTSKNQFFLKLNSVTAADTATYYCVTAGRGFPYWGQGTLVTVSS VL: DIQMTQSPSSLSASVGDRVTITCRASQDVSTAVAWYQQKPGKAPKLLIYSASFLYSGVPSRFSGSGSGTDFTLTISSLQPEDFATTYYCQQSYTGTVTFGQGTKVEIKRTVAAPDIQMTQSPSSMSVSVGDRVTITCHSSQDINSNIGWLQQKPGKSFKGLIYHGTNLDDGVPSRFSGSGSGTDYTLTISSLQPEDFATYYCVQYAQFPWTFGGGTKLEIKR | – | – | 77.3 | 0.39
